Data from patent US20200063100A1 (CRISPR THERAPEUTICS, published 2020).

Target: T1, biotinylated recombinant human BCMA (ACROS Cat# BC7-H82F0) (human, UniProt Q02223 1-54, biotinylated)
T1 construct: Bought reagent; also called biotinylated Human BCMA Protein, ACRO Biosystems; recombinant BCMA protein
T1 sequence (looked up): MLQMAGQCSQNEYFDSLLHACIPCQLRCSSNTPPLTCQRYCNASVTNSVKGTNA
Assay: flow cytometry, CAR T cells stained with biotinylated antigen

B1: anti-BCMA CAR, expressed on gene-edited human T cells (other)
chain: QVQLVQSGAELKKPGASVKVSCKASGNTLTNYVIHWVRQAPGQRLEWMGYILPYNDLTKYSQKFQGRVTITRDKSASTAYMELSSLRSEDTAVYYCTRWDWDGFFDPWGQGTTVTVSSGGGGSGGGGSGGGGSEIVMTQSPATLSVSPGERASISCRASQSLVHSNGNTHLHWYQQRPGQAPRLLIYSVSNRFSEVPARFSGSGSGTDFTLTISSVESEDFAVYYCSQTSHIPYTFGGGTKLEIKSAAAFVPVFLPAKPTTTPAPRPPTPAPTIASQPLSLRPEACRPAAGGAVHTRGLDFACDIYIWAPLAGTCGVLLLSLVITLYCNHRNRKRGRKKLLYIFKQPFMRPVQTTQEEDGCSCRFPEEEEGGCELRVKFSRSADAPAYQQGQNQLYNELNLGRREEYDVLDKRRGRDPEMGGKPRRKNPQEGLYNELQKDKMAEAYSEIGMKGERRRGKGHDGLYQGLSTATKDTYDALHMQALPPR
notes: also called anti-BCMA (4-1BB co-stim) CAR
binding result: binds
